Test results: the supplement of paper PMC10724198
± gives the standard deviation of the averaged measurements.

Legend:
Saccharomyces cerevisiae [1] = assay: protein stability index of tFT-peptide fusion (C-terminal peptide) (PSI (0-1 scale)); higher = more stable (slower turnover)
Procedure: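 MPS profiling in S. cerevisiae of the tFT-X12 degron library: putative degron peptides plus stable controls, 12 aa, fused to the C-terminus of a sfGFP-mCherry timer. Cells are FACS-sorted into 8 mCherry/sfGFP bins and deep-sequenced. PSI runs from 0 (unstable) to 1 (stable). Backgrounds are wild type, das1Δ and doa10Δ at 30 °C, and wild type, das1Δ, cdc34-1 and cdc53-1 at 37 °C; 2-3 technical replicates each.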

Saccharomyces cerevisiae [2] = assay: as above; conditions: genetic background: wild type; temperature: 30 C
[3] = genetic background: cdc34-1, temperature: 37 C
[4] = genetic background: cdc53-1, temperature: 37 C
[5] = genetic background: das1 deletion, temperature: 30 C
[6] = genetic background: das1 deletion, temperature: 37 C
[7] = genetic background: doa10 deletion, temperature: 30 C
[8] = genetic background: wild type, temperature: 30 C
[9] = genetic background: wild type, temperature: 37 C
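Note: PSI is a weighted mean of sequencing reads over stability bins, variants kept only with over 10 reads, mCherry proximal and sfGFP distal, peptide attached via GGGS linker.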

| Sequence | protein stability index (Saccharomyces cerevisiae [1]; [3]) | protein stability index (Saccharomyces cerevisiae [1]; [4]) | protein stability index (Saccharomyces cerevisiae [1]; [5]) | protein stability index (Saccharomyces cerevisiae [1]; [6]) | protein stability index (Saccharomyces cerevisiae [1]; [7]) | protein stability index (Saccharomyces cerevisiae [1]; [8]) | protein stability index (Saccharomyces cerevisiae [1]; [9]) | protein stability index (Saccharomyces cerevisiae [2]) |
| --- | --- | --- | --- | --- | --- | --- | --- | --- |
| KLRIVYAKVVCS | 0.547 ± 0.044 | 0.592 ± 0.025 | 0.511 ± 0.029 | 0.613 ± 0.0069 | 0.247 ± 0.019 | 0.274 ± 0.015 | 0.407 ± 0.067 | 0.348 ± 0.055 |
| KSEKTYTYQVIQ | 0.682 ± 0.022 | 0.749 ± 0.027 | 0.622 ± 0.023 | 0.7159 ± 0.0055 | 0.329 ± 0.031 | 0.37 ± 0.027 | 0.5757 ± 0.005 | 0.453 ± 0.0059 |
| KVALWRRGVLAA | 0.363 ± 0.028 | 0.387 ± 0.013 | 0.257 ± 0.037 | 0.476 ± 0.011 | 0.142 ± 0.0064 | 0.161 ± 0.02 | 0.286 ± 0.0099 | 0.231 ± 0.007 |
| LCGYVGVVVCLV | 0.282 ± 0.012 | 0.307 ± 0.027 | 0.243 ± 0.029 | 0.433 ± 0.0061 | 0.175 ± 0.0034 | 0.209 ± 0.021 | 0.352 ± 0.015 | 0.307 ± 0.019 |
| LCIRHFRLLELL | 0.5607 ± 0.0046 | 0.72 ± 0.014 | 0.642 ± 0.033 | 0.728 ± 0.041 | 0.165 ± 0.011 | 0.167 ± 0.016 | 0.268 ± 0.021 | 0.276 ± 0.0069 |
| LCSYSTIPLRLY | 0.619 ± 0.034 | 0.726 ± 0.013 | 0.614 ± 0.019 | 0.695 ± 0.022 | 0.188 ± 0.0019 | 0.231 ± 0.021 | 0.48 ± 0.013 | 0.329 ± 0.035 |
| LCWASLLIVYLP | 0.397 ± 0.014 | 0.4614 ± 0.0036 | 0.311 ± 0.03 | 0.50382 ± 0.0004 | 0.27 ± 0.017 | 0.278 ± 0.032 | 0.463 ± 0.0039 | 0.392 ± 0.011 |
| LEYCLATYLSAC | 0.3382 ± 0.00047 | 0.435 ± 0.013 | 0.25 ± 0.035 | 0.43854 ± 0.00041 | 0.211 ± 0.0025 | 0.248 ± 0.016 | 0.4386 ± 0.00068 | 0.378 ± 0.0073 |
| LFFSFLFLATRC | 0.248 ± 0.012 | 0.209 ± 0.018 | 0.254 ± 0.045 | 0.39184 ± 0.00039 | 0.2246 ± 0.00043 | 0.193 ± 0.019 | 0.311 ± 0.016 | 0.236 ± 0.037 |
| LFFVCSGVVFSF | 0.514 ± 0.052 | 0.5482 ± 0.0011 | 0.407 ± 0.03 | 0.5829 ± 0.0055 | 0.38 ± 0.01 | 0.384 ± 0.031 | 0.558 ± 0.011 | 0.507 ± 0.04 |
| LFGFLCVVMCCG | 0.533 ± 0.014 | 0.521 ± 0.0067 | 0.44 ± 0.02 | 0.511 ± 0.03 | 0.412 ± 0.023 | 0.4422 ± 0.00067 | 0.485 ± 0.034 | 0.434 ± 0.028 |
| LFLFFFLPPLLF | 0.4247 ± 0.0027 | 0.407 ± 0.0056 | 0.373 ± 0.025 | 0.484 ± 0.021 | 0.439 ± 0.018 | 0.366 ± 0.009 | 0.461 ± 0.026 | 0.446 ± 0.028 |
| LFLSFLLLYFRP | 0.269 ± 0.019 | 0.219 ± 0.022 | 0.311 ± 0.037 | 0.4223 ± 0.0015 | 0.439 ± 0.021 | 0.313 ± 0.015 | 0.402 ± 0.0086 | 0.351 ± 0.039 |
| LFMRGEDEMFSV | 0.722 ± 0.052 | 0.758 ± 0.024 | 0.658 ± 0.01 | 0.7826 ± 0.0013 | 0.668 ± 0.012 | 0.672 ± 0.022 | 0.766 ± 0.036 | 0.746 ± 0.018 |
| LFPLFTLIFVHL | 0.224 ± 0.016 | 0.212 ± 0.017 | 0.265 ± 0.023 | 0.4169 ± 0.0011 | 0.119 ± 0.025 | 0.115 ± 0.019 | 0.1696 ± 0.00078 | 0.1989 ± 0.00028 |
| LFTRSIRNLKSL | 0.653 ± 0.057 | 0.7269 ± 0.007 | 0.664 ± 0.0086 | 0.738 ± 0.02 | 0.303 ± 0.0033 | 0.291 ± 0.0074 | 0.4521 ± 0.0027 | 0.452 ± 0.033 |
| LFVFVISSSSFP | 0.442 ± 0.0068 | 0.539 ± 0.035 | 0.321 ± 0.025 | 0.553 ± 0.0059 | 0.291 ± 0.022 | 0.306 ± 0.025 | 0.503 ± 0.015 | 0.395 ± 0.04 |
| LFWCCVGLSVWR | 0.367 ± 0.063 | 0.474 ± 0.026 | 0.318 ± 0.022 | 0.5026 ± 0.0031 | 0.278 ± 0.0092 | 0.31 ± 0.016 | 0.494 ± 0.023 | 0.43 ± 0.011 |
| LFWPPCYLFFCL | 0.446 ± 0.034 | 0.508 ± 0.052 | 0.473 ± 0.039 | 0.677 ± 0.045 | 0.393 ± 0.03 | 0.324 ± 0.027 | 0.437 ± 0.024 | 0.389 ± 0.031 |
| LFWTLSKYLIIC | 0.284 ± 0.015 | 0.42 ± 0.024 | 0.34 ± 0.04 | 0.491 ± 0.011 | 0.0759 ± 0.0053 | 0.108 ± 0.013 | 0.159 ± 0.083 | 0.135 ± 0.079 |

| Sequence | protein stability index (Saccharomyces cerevisiae [1]; [3]) | protein stability index (Saccharomyces cerevisiae [1]; [4]) | protein stability index (Saccharomyces cerevisiae [1]; [5]) | protein stability index (Saccharomyces cerevisiae [1]; [6]) | protein stability index (Saccharomyces cerevisiae [1]; [7]) | protein stability index (Saccharomyces cerevisiae [1]; [8]) | protein stability index (Saccharomyces cerevisiae [1]; [9]) | protein stability index (Saccharomyces cerevisiae [2]) |
| --- | --- | --- | --- | --- | --- | --- | --- | --- |
| LGFFIFSFLILK | 0.0638 ± 0.017 | 0.0569 ± 0.025 | 0.189 ± 0.031 | 0.235 ± 0.011 | 0.263 ± 0.017 | 0.124 ± 0.036 | 0.221 ± 0.057 | 0.25 ± 0.015 |
| LGFHFFFTLIFF | 0.284 ± 0.054 | 0.274 ± 0.0087 | 0.279 ± 0.04 | 0.4 ± 0.031 | 0.4518 ± 0.0032 | 0.305 ± 0.039 | 0.37 ± 0.042 | 0.381 ± 0.03 |
| LGLLIFQWARVL | 0.302 ± 0.015 | 0.5 ± 0.0084 | 0.405 ± 0.026 | 0.553 ± 0.0056 | 0.0666 ± 0.012 | 0.0808 ± 0.016 | 0.092 ± 0.0037 | 0.12 ± 0.035 |
| LGVVVGGVRGVG | 0.43 ± 0.04 | 0.49 ± 0.0086 | 0.461 ± 0.012 | 0.505 ± 0.0054 | 0.467 ± 0.012 | 0.46 ± 0.025 | 0.4913 ± 0.0033 | 0.448 ± 0.045 |
| LHRLRFTLVQVS | 0.171 ± 0.0037 | 0.196 ± 0.036 | 0.228 ± 0.032 | 0.32664 ± 0.00013 | 0.127 ± 0.018 | 0.163 ± 0.021 | 0.2 ± 0.0028 | 0.223 ± 0.022 |
| LIAPSACNLFLF | 0.639 ± 0.04 | 0.7535 ± 0.0061 | 0.682 ± 0.015 | 0.7584 ± 0.0066 | 0.288 ± 0.0042 | 0.308 ± 0.018 | 0.5569 ± 0.005 | 0.412 ± 0.032 |
| LIRDLLYMAVLV | 0.249 ± 0.015 | 0.258 ± 0.016 | 0.295 ± 0.019 | 0.357 ± 0.018 | 0.32 ± 0.0083 | 0.281 ± 0.039 | 0.329 ± 0.0044 | 0.38 ± 0.019 |
| LISRLVLVFVIP | 0.3804 ± 0.00059 | 0.443 ± 0.012 | 0.287 ± 0.032 | 0.529 ± 0.0056 | 0.284 ± 0.021 | 0.272 ± 0.026 | 0.4696 ± 0.0045 | 0.38 ± 0.011 |
| LIVCVKAITIVS | 0.0266 ± 0.0046 | 0.0452 ± 0.011 | 0.0357 ± 0.0096 | 0.0917 ± 0.019 | 0.0226 ± 0.0029 | 0.0194 ± 0.0031 | 0.0521 ± 0.031 | 0.0363 ± 0.015 |
| LKCFLVLTFWFS | 0.187 ± 0.045 | 0.231 ± 0.012 | 0.222 ± 0.028 | 0.367 ± 0.018 | 0.184 ± 0.021 | 0.194 ± 0.027 | 0.3 ± 0.0095 | 0.263 ± 0.0049 |
| LLHFVLYFLSCT | 0.51 ± 0.057 | 0.548 ± 0.0012 | 0.442 ± 0.03 | 0.5554 ± 0.0051 | 0.42 ± 0.03 | 0.434 ± 0.01 | 0.549 ± 0.012 | 0.456 ± 0.018 |
| LLHQSVHSHIPP | 0.637 ± 0.0097 | 0.72 ± 0.013 | 0.638 ± 0.022 | 0.733 ± 0.021 | 0.641 ± 0.018 | 0.641 ± 0.024 | 0.6911 ± 0.0067 | 0.534 ± 0.052 |
| LLILSLLVLSSR | 0.244 ± 0.022 | 0.348 ± 0.024 | 0.241 ± 0.021 | 0.42 ± 0.0046 | 0.2034 ± 0.00063 | 0.229 ± 0.036 | 0.37 ± 0.011 | 0.326 ± 0.0076 |
| LLLCVVLVSVFG | 0.0374 ± 0.0057 | 0.0791 ± 0.044 | 0.122 ± 0.025 | 0.174 ± 0.02 | 0.0854 ± 0.0049 | 0.102 ± 0.023 | 0.134 ± 0.027 | 0.18 ± 0.0041 |
| LLLFSFAALANF | 0.539 ± 0.059 | 0.545 ± 0.017 | 0.398 ± 0.022 | 0.5592 ± 0.0013 | 0.245 ± 0.0066 | 0.283 ± 0.018 | 0.466 ± 0.02 | 0.347 ± 0.0064 |
| LLLFTPFYLLLR | 0.0987 ± 0.033 | 0.0767 ± 0.0017 | 0.218 ± 0.021 | 0.27 ± 0.0065 | 0.525 ± 0.015 | 0.188 ± 0.037 | 0.219 ± 0.016 | 0.305 ± 0.011 |
| LLLPVFRFFFVN | 0.468 ± 0.032 | 0.632 ± 0.065 | 0.554 ± 0.026 | 0.672 ± 0.021 | 0.0849 ± 0.023 | 0.109 ± 0.007 | 0.143 ± 0.0049 | 0.203 ± 0.04 |
| LLRFFPCFLGVN | 0.653 ± 0.018 | 0.6962 ± 0.0039 | 0.657 ± 0.043 | 0.701 ± 0.012 | 0.43 ± 0.023 | 0.425 ± 0.032 | 0.579 ± 0.021 | 0.484 ± 0.022 |
| LLTAARAQLFAV | 0.65 ± 0.0086 | 0.704 ± 0.029 | 0.578 ± 0.016 | 0.7 ± 0.022 | 0.457 ± 0.013 | 0.477 ± 0.019 | 0.6168 ± 0.0014 | 0.503 ± 0.046 |
